Assay [1] deals with T1, Recombinant mouse PD-1 extracellular domain (with an immunoglobulin Fc region or a His tag) (mouse, UniProt Q02242 25-169).
T1 construct: extracellular domain; Coated on ELISA plates; not shown: either an immunoglobulin Fc region or a His tag
T1 sequence (looked up): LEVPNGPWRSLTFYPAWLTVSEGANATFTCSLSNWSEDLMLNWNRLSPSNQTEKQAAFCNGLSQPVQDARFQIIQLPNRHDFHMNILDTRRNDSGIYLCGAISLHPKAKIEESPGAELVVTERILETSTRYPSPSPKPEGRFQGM
Nature of the assay: ELISA, plate-coated recombinant PD-1 extracellular domain. The method, then: (§1) An enzyme-linked immunosorbent assay (ELISA) was performed to assess the binding of anti-PD-1 antibodies to human, cynomolgus monkey, or mouse PD-1. Recombinant proteins containing the extracellular domain of PD-1 together with either an immunoglobulin Fc region or a His tag were used to coat wells of standard 96 well ELISA plates by overnight incubation at 4° C. Unbound recombinant protein was removed, Pierce SUPERBLOCK™ T20 was added, and plates were incubated for 10 minutes at room temperature with shaking. Plates were washed with phosphate buffered saline-TWEEN-20 (PBST), and anti-PD-1 antibodies were added in phosphate buffered saline (PBS) with 1% bovine serum albumin (BSA) and incubated for one hour at room temperature with shaking. Plates were then washed in PBST and incubated with horse radish peroxidase (HRP)-conjugated secondary antibodies in F(ab′)2 directed to either human IgG or human IgM. After one hour, plates were washed again with PBST, signal was developed with SUPERSIGNAL™ ELISA Pico substrate, and an ENVISION® luminometer (PerkinElmer) was used to record signal. Data were analyzed with […] PRISM®.
(In an ELISA, binding on a coated surface is turned into a signal by an enzyme label.)

The target of assay [2] is T2, PD-1 on PD-1 reporter Jurkat cells (PATHHUNTER Checkpoint Signaling Assay) (UniProt Q15116 25-288). Nature of the assay: cell-based or functional assay.
In assay [3] the target is T3, Mouse PD-1 overexpressed on HEK293 cells (mouse, UniProt Q02242 25-288).
T3 construct: whole, on cells
T3 sequence (looked up): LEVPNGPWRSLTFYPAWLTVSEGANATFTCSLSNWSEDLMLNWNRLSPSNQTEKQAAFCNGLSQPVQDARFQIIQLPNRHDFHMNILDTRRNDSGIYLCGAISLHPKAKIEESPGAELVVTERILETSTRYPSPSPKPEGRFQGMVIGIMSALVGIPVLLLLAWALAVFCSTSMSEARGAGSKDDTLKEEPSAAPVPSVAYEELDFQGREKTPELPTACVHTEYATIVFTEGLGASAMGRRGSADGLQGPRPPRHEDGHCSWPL
Nature of the assay: flow cytometry on HEK293 cells overexpressing mouse PD-1. The procedure: (§2) HEK293 cells were modified to overexpress human or mouse PD-1. Cells were expanded in puromycin-containing media to maintain selection, and aliquoted to 96 well V-bottom plates for antibody staining and flow cytometric analysis. Anti-PD-1 antibodies were added to cells in BD stain buffer with fetal bovine serum (BD Biosciences, cat. #554656) and incubated on ice for 20 minutes. Cells were then washed, and R-phycoerythrin (PE)-labeled anti-human IgG or anti-human IgM secondary antibodies were then added and incubated for an additional 20 minutes. Data were collected on a Beckman Coulter CYTOFLEX® cytometer and analyzed in FLOWJO™.
Background: In flow cytometry, cells or beads pass a laser one at a time.

Assay [4] has as its target T2, PD-1 on PD-1 reporter Jurkat cells …. Nature of the assay: cell-based or functional assay. The source holds these as a separate data set.
Assay [5] concerns the target T4, Human PD-1 overexpressed on HEK293 cells (human, UniProt Q15116 25-288).
T4 construct: whole, on cells
As to the kind of experiment: flow cytometry on HEK293 cells overexpressing human PD-1, PE anti-human IgM detection. The procedure: as §2

Assay [6] addresses T2, PD-1 on PD-1 reporter Jurkat cells …. Nature of the assay: cell-based or functional assay. The source holds these as a separate data set.
Assay [7] concerns the target T5, Recombinant human PD-1 extracellular domain (with an immunoglobulin Fc region or a His tag) (human, UniProt Q15116 25-170).
T5 construct: extracellular domain; Coated on ELISA plates; not shown: either an immunoglobulin Fc region or a His tag
Nature of the assay: ELISA, plate-coated recombinant PD-1 extracellular domain, HRP anti-human IgM detection. The method, then: as §1

T2 sequence (Q15116 25-288): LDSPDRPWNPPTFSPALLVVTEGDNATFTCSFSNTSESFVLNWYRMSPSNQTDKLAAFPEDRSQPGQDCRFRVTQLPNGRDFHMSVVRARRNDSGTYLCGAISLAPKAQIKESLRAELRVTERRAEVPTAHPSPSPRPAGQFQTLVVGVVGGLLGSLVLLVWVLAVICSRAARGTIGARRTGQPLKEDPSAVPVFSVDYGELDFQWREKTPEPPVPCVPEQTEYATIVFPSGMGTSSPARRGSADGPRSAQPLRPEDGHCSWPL
T4 sequence (Q15116 25-288): as above
T5 sequence (Q15116 25-170): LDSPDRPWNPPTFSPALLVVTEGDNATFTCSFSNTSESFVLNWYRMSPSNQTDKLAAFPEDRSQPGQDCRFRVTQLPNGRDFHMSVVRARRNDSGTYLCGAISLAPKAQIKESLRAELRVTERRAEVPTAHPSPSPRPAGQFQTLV

B1: Anti-PD-1 IgM #1 (antibody)
VH: EVQLQESGPGLVKPSQTLSLTCTVTGYSITSDYAWNWIRQPPGKKLEWMGYINYSGSTSYNPSLKSRVTISRDTSKNQFSLKLSSVTAADTAVYYCARWIGSSAWYFDVWGQGTLVTVS
VL: DVLMTQTPLSLSVTPGQPASISCRSGQNIVHSNGNTYLEWYLQKPGQSPKLLIYKVSNRFFGVPDRISGSGSGTDFTLKISRVEAEDVGVYFCFQGSHVPFTFGQGTKLEIK
chain: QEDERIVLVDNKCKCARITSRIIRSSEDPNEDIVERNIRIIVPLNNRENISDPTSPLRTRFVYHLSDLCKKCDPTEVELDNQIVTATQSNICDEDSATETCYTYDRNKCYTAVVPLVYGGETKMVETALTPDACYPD
notes: also called Antibody #1 (IgM format); pentameric IgM #1
A word on the EC50: it is the midpoint of the concentration-response curve. With B1, the binding result in assay [1] and in assay [3] was “no binding” in each case. The “PD-1 Signaling EC50 (PATHHUNTER Checkpoint Signaling Assay, reporter Jurkat cells), IgM” value in assay [2] worked out at 0.014 nM. Besides, the “PD-1 Signaling EC50 (second incubation at 4 C), IgM” value in assay [4] was 0.031 nM. Also, the EC50 turned out to be 0.2 nM in assay [5] and 0.087 nM in assay [7]. Also, the “PD-1 Signaling EC50 (method of Example 8), IgM” value in assay [6] was 0.057 nM.

The values above are taken from patent US20230212293A1 (published 2023).
